Measured values: patent US20250011363A1, “OPTIMIZED SHORTENED PEPTIDE THAT BINDS TO ACETYLCHOLINE RECEPTOR, AND USE THEREOF” (SKINMED CO., LTD., priority 2021, published 2025)

target: acetylcholine receptor; test: SPR, receptor immobilized on CM5 chip, peptide 10 uM

Binder	Binding affinity (RU)
RRGFSK [6mer-1-297]	139
RRLRYR [6mer-1-279]	145
RKQLTK [6mer-1-290]	146
KRQQTR [6mer-1-278]	142
KRQRCR [6mer-1-295]	148
KKQVSR [6mer-1-272]	139
KRWVQR [6mer-1-285]	122
KRLLYK [6mer-1-274]	135
RKWLTR [6mer-1-287]	136
RKLISK [6mer-1-286]	139
KKWVQK [6mer-1-283]	133
KRGLRR [6mer-1-270]	149
KKLYRR [6mer-1-294]	123
KKLYCK [6mer-1-298]	147
KKVQQR [6mer-1-288]	148
KKGLCR [6mer-1-277]	141
RRQVSK [6mer-1-271]	122
KRSRQK [6mer-1-284]	145

Next, values leading:

Binding affinity (RU)	Binder
121	RKSIRR [6mer-1-296]
121	RRRRYR [6mer-1-282]
142	RKRRQR [6mer-1-269]
153	RKRYYR [6mer-1-289]
142	KKQIRK [6mer-1-291]
149	RKLQCK [6mer-1-280]
128	RRVICK [6mer-1-276]
122	RKWQTK [6mer-1-292]
137	KKQVSK [6mer-1-273]
154	RKRVCK [6mer-1-293]
154	KRLLCR [6mer-1-281]
123	RKRVLK [6mer-1-275]

target: acetylcholine receptor; test: SPR, AchR immobilized on CM5 chip, peptide at 10 uM

Binder	Binding affinity (RU)
KTPMK [5mer-738]	29
KFEMK [5mer-1043]	15
KEHVR [5mer-1035]	19
RINVR [5mer-737]	13
KTPWR [5mer-1040]	17
RMMGK [5mer-740]	21
KTEAK [5mer-744]	32
REPMK [5mer-748]	12
RCCAK [5mer-1042]	28
RNSDK [5mer-742]	11
RMEIK [5mer-745]	14
KTHMK [5mer-1036]	23
RDWFK [5mer-1041]	27
KDCPR [5mer-739]	16
KKSFR [5mer-1037]	28
KKHHR [5mer-736]	24
RMTVK [5mer-746]	26
KKDVK [5mer-1039]	32
KAHMR [5mer-1047]	23

Next, values leading:

Binding affinity (RU)	Binder
17	KCCKR [5mer-1038]
12	KYDNK [5mer-1048]
15	KYAFR [5mer-743]
19	KHTMR [5mer-1046]
22	RDCFK [5mer-1044]
14	KPTPR [5mer-741]
31	RKTDK [5mer-747]
22	KMDEK [5mer-1045]
